The source of these data is patent publication US20250090676A1 (SUTRO BIOPHARMA, published 2025).

For test [1], the target named is T1, cynomolgus monkey folate receptor alpha (cynomolgus monkey, UniProt P15328 25-234 (human entry)).
T1 construct: Expressed on the surface of stably transfected CHO cells; also called cyno FolR1; CHO-cyno FolR1
As to the kind of experiment: FACS, CHO-cFOLR1 cells. In general terms: Flow cytometry measures light scatter and fluorescence of single cells or particles in a stream.

The target in test [2] is T2, human folate receptor alpha (hFOLR1) (human, UniProt P15328 25-234). As to the kind of experiment: cell-based or functional assay.
T2 sequence (P15328 25-234 limits assumed): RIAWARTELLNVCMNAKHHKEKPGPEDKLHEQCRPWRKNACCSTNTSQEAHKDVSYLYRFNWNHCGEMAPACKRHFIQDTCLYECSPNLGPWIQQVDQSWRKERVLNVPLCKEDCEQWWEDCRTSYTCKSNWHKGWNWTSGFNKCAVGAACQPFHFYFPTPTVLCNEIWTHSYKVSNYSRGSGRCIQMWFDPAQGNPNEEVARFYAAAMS
The target of test [3] is T2, human folate receptor alpha (hFOLR1). As to the kind of experiment: FACS, CHO-hFOLR1 cells.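 Also: flow cytometry of serially diluted antibodies binding CHO cells stably expressing the receptor, 60 min on ice, mixed with dye-tagged parental CHO as background control, one-site specific fit with Hill slope.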
Method: (§1) CHO cells were transfected to stably express human (CHO-hFOLR1), cynomolgus (CHO-cFOLR1), or mouse (CHO-mFOLR1) target molecule FOLR1 on the cell surface. Parental CHO cells were used as a negative control to determine background binding levels. Parental CHO and stably transfected CHO-hFOLR1, CHO-cFOLR1, and CHO-mFOLR1 cells were cultured in Ham's F-12: high glucose DMEM (50:50) (Corning, Cellgro-Mediatech) supplemented with 10% heat-inactivated fetal bovine serum (Corning, Cellgro-Mediatech), 1% Penicillin/Streptomycin (Corning, Cellgro-Mediatech) and 2 mmol/L-glutamax (Life Technology).
(§2) A mixture of fluoresecent-labeled parental CHO cells and unlabeled CHO-hFOLRlcells were prepared as follows. Parental CHO cells were washed twice in PBS and incubated in PBS containing with 1 nM CellTrace™ Oregon Green488® (Life Technologies) at 37° C. for 30 minutes. Labeled parental CHO cells were then washed 2× with Ham's F-12 media and 2× with FACS buffer (PBS with 1% bovine serum albumin). Unlabeled CHO-hFOLR1 cells were similarly washed and prepared. Labeled parental CHO and unlabeled CHO-hFOLR1 cells were combined at 1:1 ratio and seeded at 50 μL per well (200,000 cells per well) in 96 well polypropylene plates. Cells were mixed with 50 μL of test antibodies (i.e., anti-FOLR1 variants) serially diluted in FACS buffer and incubated on ice for 60 mins. […] Data were analyzed using FlowJo® software (FlowJo, LLC; Ashland, OR) to determine mean fluorescence intensities. Binding constants were calculated using the statistical software, GraphPad Prism (GraphPad Software; La Jolla, CA) using the nonlinear regression equation, one site-specific binding with Hill slope. Secondary antibody alone was used as a control, in addition to measuring non-specific antibody binding to CHO parental cells.
Test [4] addresses T3, murine folate receptor alpha (mouse, UniProt P35846 25-232).
T3 construct: Expressed on the surface of stably transfected CHO cells; also called mouse FolR1; CHO-mouse FolR1
As to the kind of experiment: FACS, CHO-mFOLR1 cells.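 Also: flow cytometry binding of serially diluted test antibodies to transfected CHO cells on ice, mean fluorescence intensity, parental CHO cells give background, Kd from one-site specific binding fit with Hill slope.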
Method: as §1, §2

Where a chain is given by its changes, count along the chain named.

T1 sequence (P15328 other isoform, or with tags, fused parts or gaps limits assumed): as the sequence (P15328 25-234 limits assumed) above, with I2T, W4R, R37K, Q117R, A146P, H171Y counted along it
T3 sequence (P35846 25-232 limits assumed): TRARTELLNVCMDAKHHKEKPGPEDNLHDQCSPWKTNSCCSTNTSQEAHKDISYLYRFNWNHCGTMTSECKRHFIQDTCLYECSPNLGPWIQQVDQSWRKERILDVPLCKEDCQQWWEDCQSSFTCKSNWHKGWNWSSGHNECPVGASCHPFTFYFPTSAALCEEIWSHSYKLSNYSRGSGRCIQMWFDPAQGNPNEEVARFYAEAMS

B1: SRP1848-B07 (antibody, V domains shown)
VH: EVQLVESGGGLVQPGGSLRLSCAASGFNISRFYIHWVRQAPGKGLEWVGGISPYDGFTDYADSVKGRFTISADTSKNTAYLQMNSLRAEDTAVYYCARGSWSWPAGYGYYQDYWGQGTLVTVSS
VL: not shown
notes: HC variant paired with trastuzumab LC, cell-free expressed, HIS- and FLAG-tagged; also called Antibody 14
Take B1: in test [1], the “Bmax (MFI)” value was determined as 25500 MFI and binding was characterised by a dissociation constant (Kd) of 1050 pM. Besides, in test [2], the “Igrov, 2° Antibody Cell Killing, Nb-SC239: EC50” value (from here on “Igrov … EC50”) is 38 pM; the “Igrov, 2° Antibody Cell Killing, Nb-SC239: Span” value (shortened to “Igrov … Span”) was determined as 73%; the “KB, 2° Antibody Cell Killing, Nb-239: EC50” value (“KB … EC50” below) turned out to be 79 pM; the “KB, 2° Antibody Cell Killing, Nb-239: Span” value (“KB … Span” for short) was 96%. In addition, in test [3], the “Bmax (MFI)” value is 25600 MFI and the Kd is 660 pM. Moreover, in test [4], the binding result was “no binding”.

B2: SRP1848-C07 (antibody, V domains shown)
VH: B1 VH with S30R, R31K, F32Y, Y33S, G50D, S52F, Y54I, F57I, V64M
VL: not shown
notes: HC variant paired with trastuzumab LC, cell-free expressed, HIS- and FLAG-tagged; also called Antibody 22
For B2, in test [1], the “Bmax (MFI)” value amounted to 18100 MFI and the Kd worked out at 230 pM. Moreover, in test [2], the “Igrov … EC50” value came out at 13 pM; the “Igrov … Span” value came to 67%; the “KB … EC50” value stood at 65 pM; the “KB … Span” value was determined as 93%. Besides, in test [3], the “Bmax (MFI)” value was 28800 MFI and the equilibrium dissociation constant (Kd) was 620 pM. For the same molecule, in test [4], the “Bmax (MFI)” value worked out at 3170 MFI and binding was put at a Kd of 1400 pM.

B3: SRP1848-C01 (antibody, V domains shown)
VH: EVQLVESGGGLVQPGGSLRLSCAASGFNIGNSYIHWVRQAPGKGLEWVGGVTPNDGYTDYADSVKGRFTISADTSKNTTYLQMNSLRAEDTAVYYCARGSWFWRAGYGYYLDYWGQGALVTVSS
VL: not shown
notes: HC variant paired with trastuzumab LC, cell-free expressed, HIS- and FLAG-tagged; also called Antibody 18
Turning to B3, in test [1], the “Bmax (MFI)” value was 25900 MFI and the Kd turned out to be 600 pM. In test [2], the “Igrov … EC50” value was 23 pM; the “Igrov … Span” value came out at 68%; the “KB … Span” value turned out to be 90%. Further, in test [3], the “Bmax (MFI)” value is 28500 MFI and the dissociation constant (Kd) is 660 pM. Further, in test [4], the “Bmax (MFI)” value worked out at 1370 MFI and the affinity, expressed as Kd, was 26000 pM.

B4: SRP1848-C03 (antibody, V domains shown)
VH: EVQLVESGGGLVQPGGSLRLSCAASGFNIGVYSIHWVRQAPGKGLEWVGEIYPIDGNTDYADSVKGRFTISADTSKNTAYLQMNSLRAEDTAVYYCARGSWAWRSGYSYYLDYWGQGTLVTVSS
VL: not shown
notes: HC variant paired with trastuzumab LC, cell-free expressed, HIS- and FLAG-tagged; also called Antibody 19
For the molecule B4, in test [1], the “Bmax (MFI)” value turned out to be 25100 MFI and the Kd is 500 pM. Besides, in test [2], the “Igrov … EC50” value was determined as 35 pM; the “Igrov … Span” value is 72%; the “KB … EC50” value came out at 74 pM; the “KB … Span” value worked out at 93%. In test [3], the “Bmax (MFI)” value amounted to 29100 MFI and the affinity, expressed as Kd, was 510 pM. In test [4], the “Bmax (MFI)” value was determined as 3310 MFI and binding was put at a Kd of 3000 pM.

B5: SRP1848-B09 (antibody, V domains shown)
VH: EVQLVESGGGLVQPGGSLRLSCAAGGFNITNYYIHWVRQAPGKGLEWVGGITPVDGYTDYADRVKGRFTISADTSKNTAYLQMNSLRAEDTAVYYCARGAWSWRSGYGYYMDYWGQGTLVTVSS
VL: not shown
notes: HC variant paired with trastuzumab LC, cell-free expressed, HIS- and FLAG-tagged; also called Antibody 15
With B5, in test [1], the “Bmax (MFI)” value was 25200 MFI and the Kd was found to be 990 pM. In test [2], the “Igrov … EC50” value was found to be 27 pM; the “Igrov … Span” value was found to be 74%; the “KB … EC50” value stood at 73 pM; the “KB … Span” value came to 97%. In test [3], the “Bmax (MFI)” value worked out at 25200 MFI and the Kd was determined as 460 pM. In addition, in test [4], the “Bmax (MFI)” value turned out to be 1420 MFI and the Kd turned out to be 78000 pM.

B6: SRP1848-C04 (antibody, V domains shown)
VH: B4 VH with G30R, V31H, I54G, D55P, W101L, A102S, S105A, S108G
VL: not shown
notes: HC variant paired with trastuzumab LC, cell-free expressed, HIS- and FLAG-tagged; also called Antibody 20
Regarding B6, in test [1], the “Bmax (MFI)” value was determined as 22000 MFI and the Kd came to 860 pM. In test [2], the “Igrov … EC50” value is 16 pM; the “Igrov … Span” value is 68%; the “KB … EC50” value came to 6 pM; the “KB … Span” value amounted to 94%. Moreover, in test [3], the “Bmax (MFI)” value worked out at 26300 MFI and the affinity, expressed as Kd, was 440 pM. Moreover, in test [4], the “Bmax (MFI)” value stood at 2510 MFI and the Kd was determined as 62000 pM.

B7: SRP1848-C10 (antibody, V domains shown)
VH: B1 VH with S30R, R31T, F32Y, Y54I, F57Y, Q111L
VL: not shown
notes: HC variant paired with trastuzumab LC, cell-free expressed, HIS- and FLAG-tagged; also called Antibody 23
On to B7, for which, in test [1], the “Bmax (MFI)” value worked out at 16000 MFI and the Kd is 270 pM. In test [2], the “Igrov … EC50” value was determined as 36 pM; the “Igrov … Span” value is 75%; the “KB … EC50” value amounted to 57 pM; the “KB … Span” value stood at 96%. Moreover, in test [3], the “Bmax (MFI)” value worked out at 27500 MFI and the Kd was 910 pM. For the same molecule, in test [4], the “Bmax (MFI)” value is 2330 MFI and the Kd came out at 5600 pM.

B8: SRP1848-B11 (antibody, V domains shown)
VH: B4 VH with V31N, Y32N, E50D, Y52S, N57F, A102S, S105A, S108G
VL: not shown
notes: HC variant paired with trastuzumab LC, cell-free expressed, HIS- and FLAG-tagged; also called Antibody 17
In the case of B8, in test [1], the “Bmax (MFI)” value was found to be 22900 MFI and the Kd amounted to 340 pM. Moreover, in test [2], the “Igrov … EC50” value worked out at 26 pM; the “Igrov … Span” value came out at 74%; the “KB … EC50” value worked out at 58 pM; the “KB … Span” value was found to be 93%. In addition, in test [3], the “Bmax (MFI)” value amounted to 28400 MFI and the Kd was found to be 560 pM. Also, in test [4], the “Bmax (MFI)” value worked out at 1630 MFI and the Kd was 3900 pM.

B9: SRP1848-D02 (antibody, V domains shown)
VH: B5 VH with G25S, T30S, N31H, Y32N, V54Q, R63S, S85R, S105A, M111L
VL: not shown
notes: HC variant paired with trastuzumab LC, cell-free expressed, HIS- and FLAG-tagged; also called Antibody 24
Take B9: in test [1], the “Bmax (MFI)” value was 28000 MFI and the dissociation constant Kd is 610 pM. Besides, in test [2], the “Igrov … EC50” value was found to be 27 pM; the “Igrov … Span” value is 71%; the “KB … EC50” value came to 34 pM; the “KB … Span” value was 93%. In test [3], the “Bmax (MFI)” value stood at 28800 MFI and binding was put at a Kd of 600 pM. For the same molecule, in test [4], the “Bmax (MFI)” value came out at 916 MFI and binding was put at a Kd of 87000 pM.

B10: SRP1848-B10 (antibody, V domains shown)
VH: B4 VH with I29T, G30T, V31T, Y32K, I54R, N57I, S100G, A102H
VL: not shown
notes: HC variant paired with trastuzumab LC, cell-free expressed, HIS- and FLAG-tagged; also called Antibody 16
For B10, in test [1], the “Bmax (MFI)” value came to 21300 MFI and binding was characterised by a dissociation constant (Kd) of 440 pM. Also, in test [2], the “Igrov … Span” value is 71%; the “KB … EC50” value was determined as 40 pM; the “KB … Span” value was found to be 97%. In test [3], the “Bmax (MFI)” value came out at 28200 MFI and the affinity, expressed as Kd, was 830 pM. In test [4], the “Bmax (MFI)” value is 2460 MFI and the Kd is 7300 pM.

B11: SRP1848-C05 (antibody, V domains shown)
VH: B4 VH with G30R, V31K, E50D, Y52F, N57I, T58N, A102S, R104K, S105A, S108G
VL: not shown
notes: HC variant paired with trastuzumab LC, cell-free expressed, HIS- and FLAG-tagged; also called Antibody 21
For B11, in test [1], the “Bmax (MFI)” value worked out at 15200 MFI and the affinity, expressed as Kd, was 350 pM. In addition, in test [2], the “Igrov … EC50” value came to 21 pM; the “Igrov … Span” value was found to be 62%; the “KB … EC50” value was 73 pM; the “KB … Span” value came to 92%. Further, in test [3], the “Bmax (MFI)” value was found to be 26800 MFI and the affinity, expressed as Kd, was 520 pM. Further, in test [4], the “Bmax (MFI)” value amounted to 4130 MFI and the affinity, expressed as Kd, was 4800 pM.

The term Kd denotes a measure of binding affinity in units of concentration.
